The target in the assay is T1, human guanylyl cyclase C (GCC) (human, UniProt P25092 24-430, limits assumed).
T1 construct: also called human GCC; STAR
The experiment in a line: not described.

T1 sequence (P25092 24-430 limits assumed): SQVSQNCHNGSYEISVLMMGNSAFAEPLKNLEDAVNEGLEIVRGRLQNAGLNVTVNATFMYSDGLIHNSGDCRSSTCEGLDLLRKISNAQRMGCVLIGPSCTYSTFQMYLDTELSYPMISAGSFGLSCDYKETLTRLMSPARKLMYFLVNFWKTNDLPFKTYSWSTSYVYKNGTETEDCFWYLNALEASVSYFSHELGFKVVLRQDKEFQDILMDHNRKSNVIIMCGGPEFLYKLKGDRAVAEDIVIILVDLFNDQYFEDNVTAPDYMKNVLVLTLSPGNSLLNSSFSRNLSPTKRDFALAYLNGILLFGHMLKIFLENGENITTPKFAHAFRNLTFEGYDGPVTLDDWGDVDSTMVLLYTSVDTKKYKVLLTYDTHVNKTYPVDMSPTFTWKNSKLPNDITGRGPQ

B1: MS7 mouse monoclonal antibody (IgG1k) (antibody, V domains shown)
VH: EVMLVESGGGLVKPGGSLKLSCAASGFTFSTYAMSWVRQTPEKRLEWVATITSGGSYTYYPDSVKGRFTISRDNAKNILYLQMSSLRSEDTAMYYCTRLRQIGLRGFSDYWGQGTTLTVSS
VL: DILMTQSPSSMYASLGERVTITCKASHDIKSYLSWYQQKPWRSPKTLIYYTTALADGVPSRFSGSGSGQDYSLTISSLESDDTATYYCLQHGESPYTFGGGTKLEIK
As to B1, the binding result is on record as “binds”.

B2: MS20 mouse monoclonal antibody (IgG2ak) (antibody, V domains shown)
VH: EVQLEESGPELVKPGASVKMSCKASGYTFTDYVISWVKQRTGQGLEWIGVTYPGSGNTYYGERFKGKATLTVDKMSNTAYMQLSSLTSEDSAVYFCTRNYGSFYALDYWGQGTSVTVSS
VL: DILMTQSPATLSVTPGDRVSLSCRASQSIRDYLHWYQHRSHESPRLLIKYASQSISGIPSRFSGSGSGSDFTLTINSVEPEDVGVYYCQNGHSFPTFGGGTKLEIK
In the case of B2, the binding result was “binds”.
